Assay results taken from US20190177366A1 (published 2019).
Bridge positions count the residues as written; N and C are the ends. Ends that are not written are not given here.

How the values were obtained:
[1] = molecular target: T1, proprotein convertase subtilisin/kexin type 9 (PCSK9) (human, UniProt Q8NBP7 31-152); experiment: phage competition ELISA; competing phage pep2-8
[2] = molecular target: T1, proprotein convertase subtilisin/kexin …; experiment: phage competition ELISA; competing phage K9gvpep4
[3] = molecular target: T1, proprotein convertase subtilisin/kexin …; experiment: competition

T1 sequence (Q8NBP7 31-152, chain 1 of 2): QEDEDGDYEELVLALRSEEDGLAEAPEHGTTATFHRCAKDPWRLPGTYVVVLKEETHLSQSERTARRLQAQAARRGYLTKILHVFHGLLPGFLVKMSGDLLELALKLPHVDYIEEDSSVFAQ
T1 sequence (Q8NBP7 153-692, chain 2 of 2): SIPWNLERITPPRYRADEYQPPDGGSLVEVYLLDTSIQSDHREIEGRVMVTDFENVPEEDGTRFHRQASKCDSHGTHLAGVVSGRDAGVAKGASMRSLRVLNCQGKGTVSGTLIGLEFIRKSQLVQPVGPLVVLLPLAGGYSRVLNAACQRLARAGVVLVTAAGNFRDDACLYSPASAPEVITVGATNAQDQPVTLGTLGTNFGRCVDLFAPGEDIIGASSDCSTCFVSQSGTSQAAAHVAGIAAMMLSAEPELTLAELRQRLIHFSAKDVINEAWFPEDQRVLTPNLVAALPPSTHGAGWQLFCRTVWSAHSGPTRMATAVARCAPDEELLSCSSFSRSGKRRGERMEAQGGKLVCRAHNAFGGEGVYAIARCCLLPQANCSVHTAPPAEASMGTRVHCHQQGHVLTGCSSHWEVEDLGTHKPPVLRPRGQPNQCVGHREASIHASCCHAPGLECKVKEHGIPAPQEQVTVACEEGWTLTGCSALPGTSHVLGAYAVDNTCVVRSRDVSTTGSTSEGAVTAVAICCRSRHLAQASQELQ

Binder	IC50 [1] [nM]	IC50 [2] [nM]	IC50 [3] [nM]
Ac-TVFTSWEEYLDWVGSGDLMPWNLVRIGLLR-NH2 [Compound 20]	14.5	2.69	–
SGCRLPWNLQRIGLPC (not fully specified (bridges); cysteine pairing not given here) [K9gvpep4]	–	–	318
SGDLMPWNLVRIGLLR [K9gvpep7]	–	–	635
Ac-TVFTSWEEYLDWVGSGCRLPWNLQRIGLPC-NH2 (disulfide 17-30 (inferred)) [Compound 19]	6.19	3.44	–
